Source: the supplement of paper PMC11908140

B1: library; numbered along this chain (parent)
chain: MRKPRAAVGSGHRKQAASQEGRQKHAKNNSQAKPSACDGLARQPEEVVLQASVSSYHLFRDVAEVTAFRGSLLSWYDQEKRDLPWRRRAEDEMDLDRRAYAVWVSEVMLQQTQVATVINYYTGWMQKWPTLQDLASASLEEVNQLWAGLGYYSRGRRLQEGARKVVEELGGHMPRTAETLQQLLPGVGRYTAGAIASIAFGQATGVVDGNVARVLCRVRAIGADPSSTLVSQQLWGLAQQLVDPARPGDFNQAAMELGATVCTPQRPLCSQCPVESLCRARQRVEQEQLLASGSLSGSPDVEECAPNTGQCHLCLPPSEPWDQTLGVVNFPRKASRKPPREESSATCVLEQPGALGAQILLVQRPNSGLLAGLWEFPSVTWEPSEQLQRKALLQELQRWAGPLPATHLRHLGEVVHTFSHIKLTYQVYGLALEGQTPVTTVPPGARWLTQEEFHTAAVSTAMKKVFRVYQGQQPGTCMGSKRSQVSSPCSRKKPRMGQQVLDNFFRSHISTDAHSLNSAAQ

Variants of: B1
Test: 8OG:A repair function score (normalized; synonymous = 0, nonsense = -1) (normalized log-likelihood score); higher = more repair activity (WT-like)
Settings: with 8OG:A DNA repair reporter (GFP) in HEK-293 MUTYH KO cells
Procedure, shortened: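 After 72 h, viable mCherry+ cells were split into GFP+ (repair) and GFP− bins in three replicates per tile. These cells were MUTYH knockout HEK-293 cells holding lentiviral MUTYH cDNA NNN codon-scan libraries, kept in 10 pg/ml doxycycline and co-transfected with mCherry plus an 8OG:A GFP repair reporter. Sequencing of tile amplicons gave per-tile Rosace fitness scores, normalized into a repair function score anchored on synonymous and nonsense distributions. Synonymous medians were fixed at 0, nonsense at -1, and variants under 300 counts per million at the start were removed.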
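Also: cells sorted at 72 h after reporter transfection.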

8OG:A repair function score: each site, then its substitutions
R281: I -0.176, V -0.131, Y -0.0264, T -0.16, S -0.126, L -0.166, F -0.126, A -0.0465, D -0.447, K -0.09, G -0.264, M -0.0676, W -0.105, H 0.00153, N -0.0901, P -0.443, Q -0.113, C -0.173, E -0.484
E275: T 0.0286, A 0.0221, V 0.0153, I -0.0114, N -0.00161, P -0.152, L -0.00764, F 0.0124, S 0.00561, W -0.0767, H 0.015, D -0.113, R 0.00881, K 0.00478, C -0.0803, Y -0.0195, G -0.00445, Q 0.0396, M 0.00516
C272: A -1.16, S -1.17, T -1.24, R -1.35, V -1.12, M -1.19, P -1.26, K -1.41, I -1.3, F -1.42, Y -0.982, Q -1.09, L -1.26, E -1.29, H -1.32, W -1.09, D -1.28, G -1.24, N -1.21
L268: W -0.0985, Q -0.0131, V -0.0404, A -0.000124, F 0.00448, R 0.00479, G -0.0658, T 0.012, M 0.0171, N -0.0234, Y -0.046, D 0.0003, E -0.133, S -0.00947, K 0.0167, P -0.285, I -0.0493, C -0.13
P267: M -0.774, Q -0.679, S -0.361, C -0.372, G -0.225, H -0.87, I -0.711, T -0.202, L -1.03, N -0.863, V -0.195, K -1.06, R -1.04, D -1.1, F -0.919, A -0.131, Y -0.838, W -1.06, E -0.836
S270: Y -0.036, V -0.0277, W -0.0132, F -0.0287, M -0.0147, K -0.0187, D -0.0528, I -0.0239, P -0.0287, H 0.0198, E -0.0683, Q 0.028, L -0.0471, G -0.0285, A -0.0829, T -0.0207, R -0.00848, C -0.0715, N -0.0408
P273: D -1.05, L -0.946, Y -0.661, M -1.05, Q -0.798, F -0.844, V -0.419, C -0.28, G -0.625, W -0.748, T -0.453, K -0.708, R -0.526, H -0.569, E -0.952, A -0.171, N -0.903, S -0.426, I -0.662
C278: H -1.09, A -1.11, M -1.52, Y -0.972, W -1.05, L -1.1, N -1.1, I -1.03, P -1.2, F -1.07, E -0.92, Q -1.14, G -1.17, S -1.07, T -1.15, D -1.08, V -1.16, K -1.26, R -1.27
A280: K -0.812, S -0.172, I -0.189, W -0.57, C -0.398, Q -0.761, V -0.0812, P -0.965, H -0.731, E -0.713, Y -0.51, G -0.137, F -0.597, N -0.632, R -0.814, L -0.262, T -0.13, M -0.582, D -0.649
V274: I -0.0406, Q -0.544, H -0.563, E -0.423, C -0.176, S -0.589, W -0.16, P -1.23, K -1.03, N -0.714, T -0.241, F -0.303, M -0.0354, G -0.676, A -0.219, L -0.0284, Y -0.549, D -1.01, R -0.994
C269: H -0.96, V -1.27, N -1.31, F -1.16, T -1.06, I -1.26, R -1.15, W -1.4, G -1.26, M -1.18, Q -1.19, S -1.28, P -1.04, K -1.17, D -0.992, Y -1.12, L -1.21, A -1.29, E -1.16
Q265: K -0.0319, M -0.0825, I -0.0274, T 0.00721, N -0.0302, W -0.0937, V -0.0775, Y -0.00929, S -0.0301, R 0.00654, L -0.0663, P -0.252
R283: A -0.145
R266: P -0.449, V -0.119, D -0.269, G -0.111, H 0.00581, K 0.00702, S -0.0823, L -0.152, C -0.085, E -0.22, M -0.0578, T -0.142, Q -0.165, I -0.164, A -0.0544, W -0.135, N -0.0656, F -0.104, Y -0.102
S276: P -0.0133, I -0.0404, H 0.0172, A 0.0102, D 0.00885, E -0.0386, Y 0.0309, K 0.0174, W -0.0968, R -0.0136, Q 0.0194, C -0.133, M -0.0454, T 0.0017, N -0.00423, V -0.0409, L -0.0125, G -0.00134, F -0.0215
R279: L -0.146, V -0.344, C -0.251, K -0.0521, A -0.278, P -1.12, H -0.0508, Y -0.151, W -0.139, N -0.123, E -0.233, M -0.178, F -0.277, I -0.172, T -0.339, D -0.718, Q -0.155, S -0.377, G -0.388
L277: Y 0.014, W -0.00135, F 0.00162, R -0.152, P -0.383, C -0.0293, M 0.00781, N -0.0739, S -0.022, E -0.204, K -0.17, V -0.0751, I -0.036, T -0.115, H -0.0518, D -0.199, A -0.125, Q -0.0714
Q271: G -0.0498, F -0.0282, W -0.0164, R 0.0206, A 0.0211, Y -0.0212, K 0.0343, S -0.0229, M -0.0166, H -0.0231, L -0.00321, T -0.00163, C -0.0175, N 0.0195, E -0.00693, V 0.0124, D -0.0548, I -0.0397, P -0.311
Q282: I -0.0327, G -0.0596, R -0.0175, L -0.0273, S -0.0408, V -0.0489, K 0.0141, N -0.0575, Y -0.0373, A -0.0281, E -0.0248, F -0.021, C -0.0445, D -0.125, P -0.526, M -0.0222, W -0.0465, T -0.0623, H -0.0165
